Reference: patent US20240118200A1

Experiments:
[1] = target: glycoproteins on HeLa cells; assay: CAR imaging on fixed HeLa cells on glass, 50 µg/ml WGA, average over cells, first order kinetic fit
[2] = target: glycoproteins on HeLa cells; assay: SPR imaging on fixed HeLa cells on gold, 50 µg/ml WGA, average of 10 cells, first order kinetic fit

- Kd [1]: 42 nM
- koff [1]: 0.00026 s⁻¹
- kon [1]: 6000 M⁻¹ s⁻¹
- Kd [2]: 53 nM
- koff [2]: 0.00013 s⁻¹
- kon [2]: 2500 M⁻¹ s⁻¹
B1: wheat germ agglutinin (WGA) with Alexa Fluor 488 tag (protein, UniProt P10968 27-197, looked up)
chain: QRCGEQGSNMECPNNLCCSQYGYCGMGGDYCGKGCQNGACWTSKRCGSQAGGATCTNNQCCSQYGYCGFGAEYCGAGCQGGPCRADIKCGSQAGGKLCPNNLCCSQWGFCGLGSEFCGGGCQSGACSTDKPCGKDAGGRVCTNNYCCSKWGSCGIGPGYCGAGCQSGGCDG
modifications: Alexa Fluor 488 label, site not stated
